Literature values in paper PMC11211486.

Tests used:
MepM (Escherichia coli) = MepM (Escherichia coli) (UniProt P0AFS9)
MepS (Escherichia coli) = MepS (Escherichia coli) (UniProt P0AFV4)
PBP4 (Escherichia coli) = PBP4 (Escherichia coli) (UniProt P24228)

Measured: Kd

Chain of NlpI (C4ZSQ4 19-294): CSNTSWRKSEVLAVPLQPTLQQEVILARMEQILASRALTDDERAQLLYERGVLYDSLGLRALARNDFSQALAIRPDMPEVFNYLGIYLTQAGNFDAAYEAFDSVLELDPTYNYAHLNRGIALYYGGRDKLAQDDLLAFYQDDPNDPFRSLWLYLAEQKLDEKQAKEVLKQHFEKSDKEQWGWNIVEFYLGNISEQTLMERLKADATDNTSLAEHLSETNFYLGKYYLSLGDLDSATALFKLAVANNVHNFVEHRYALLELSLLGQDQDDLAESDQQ
Chain of PBP4 (Escherichia coli) (P24228 21-477): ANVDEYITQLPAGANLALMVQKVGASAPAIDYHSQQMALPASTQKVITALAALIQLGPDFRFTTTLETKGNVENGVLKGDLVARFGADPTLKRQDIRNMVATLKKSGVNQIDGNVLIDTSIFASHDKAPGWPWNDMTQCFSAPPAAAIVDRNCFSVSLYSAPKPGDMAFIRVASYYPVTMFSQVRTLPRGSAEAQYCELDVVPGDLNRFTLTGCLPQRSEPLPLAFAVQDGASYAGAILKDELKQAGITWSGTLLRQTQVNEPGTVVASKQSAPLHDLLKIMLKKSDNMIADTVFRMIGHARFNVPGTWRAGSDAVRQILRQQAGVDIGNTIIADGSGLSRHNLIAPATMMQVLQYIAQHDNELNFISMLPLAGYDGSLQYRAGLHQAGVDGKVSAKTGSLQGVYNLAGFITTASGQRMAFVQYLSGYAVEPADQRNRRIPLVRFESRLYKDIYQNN
Chain of MepM (Escherichia coli) (P0AFS9 whole entry): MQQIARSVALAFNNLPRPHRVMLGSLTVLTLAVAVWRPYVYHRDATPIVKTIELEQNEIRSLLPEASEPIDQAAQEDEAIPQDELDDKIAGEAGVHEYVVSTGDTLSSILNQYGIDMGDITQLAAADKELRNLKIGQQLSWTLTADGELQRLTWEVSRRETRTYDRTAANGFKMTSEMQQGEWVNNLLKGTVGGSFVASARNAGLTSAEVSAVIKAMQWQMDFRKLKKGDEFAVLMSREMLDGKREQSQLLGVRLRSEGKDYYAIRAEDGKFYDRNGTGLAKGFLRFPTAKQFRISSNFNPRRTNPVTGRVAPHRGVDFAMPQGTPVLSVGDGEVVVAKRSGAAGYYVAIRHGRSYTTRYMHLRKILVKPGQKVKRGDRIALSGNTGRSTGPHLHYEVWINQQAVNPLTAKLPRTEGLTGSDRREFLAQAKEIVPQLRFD
Chain of MepS (Escherichia coli) (P0AFV4 27-188): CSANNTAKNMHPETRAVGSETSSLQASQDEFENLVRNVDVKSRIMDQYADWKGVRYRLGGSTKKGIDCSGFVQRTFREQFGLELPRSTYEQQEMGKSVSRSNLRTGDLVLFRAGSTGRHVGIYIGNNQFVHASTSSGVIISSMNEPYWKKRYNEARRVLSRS

NlpI (from UniProt C4ZSQ4)
150 nM: MepM (Escherichia coli) | MepS (Escherichia coli) | PBP4 (Escherichia coli)
